# In patent US20190202925A1 (OPI VI IP HOLDCO, published 2019):
# T1: soluble cynomolgus TNFR2 (cynomolgus, UniProt A0A2K5VET2 132-366)
# T1 sequence: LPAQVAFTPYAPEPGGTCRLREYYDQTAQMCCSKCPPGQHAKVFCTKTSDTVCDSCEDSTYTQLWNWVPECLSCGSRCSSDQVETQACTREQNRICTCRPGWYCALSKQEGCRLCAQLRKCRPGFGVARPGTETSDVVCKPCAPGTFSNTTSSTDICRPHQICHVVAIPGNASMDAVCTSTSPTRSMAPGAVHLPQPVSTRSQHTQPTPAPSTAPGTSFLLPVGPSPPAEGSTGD
# T2: human TNFR2 on cells (human, UniProt P20333 23-461)
# T2 construct: whole, on cells; also called TNFR2 on Jurkat clone H6; human TNFR2 on CD4+ and CD8+ T cells
# T2 sequence (looked up): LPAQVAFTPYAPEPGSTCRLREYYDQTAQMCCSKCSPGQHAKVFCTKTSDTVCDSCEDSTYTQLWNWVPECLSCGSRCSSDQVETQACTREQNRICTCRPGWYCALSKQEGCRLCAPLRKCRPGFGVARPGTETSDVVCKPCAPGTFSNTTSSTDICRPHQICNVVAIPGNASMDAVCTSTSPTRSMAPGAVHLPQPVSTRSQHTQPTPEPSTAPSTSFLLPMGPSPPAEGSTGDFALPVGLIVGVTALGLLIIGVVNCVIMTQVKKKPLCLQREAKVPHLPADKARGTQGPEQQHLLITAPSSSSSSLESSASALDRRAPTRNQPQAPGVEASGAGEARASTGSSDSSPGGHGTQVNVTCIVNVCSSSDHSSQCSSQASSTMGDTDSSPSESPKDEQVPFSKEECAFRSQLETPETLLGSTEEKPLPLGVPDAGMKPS
# T3: soluble human TNFR2 (human, UniProt P20333 23-257)
# T3 construct: also called soluble TNFR2
# T3 sequence (looked up): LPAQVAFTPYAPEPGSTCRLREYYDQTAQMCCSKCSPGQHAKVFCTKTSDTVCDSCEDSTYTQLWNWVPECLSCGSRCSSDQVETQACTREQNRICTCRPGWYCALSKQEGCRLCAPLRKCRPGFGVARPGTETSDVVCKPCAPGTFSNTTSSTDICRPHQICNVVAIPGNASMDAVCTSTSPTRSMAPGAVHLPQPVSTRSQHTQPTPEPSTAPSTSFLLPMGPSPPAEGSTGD
# Columns and labels:
# soluble cynomolgus TNFR2 = biological target: T1, soluble cynomolgus TNFR2; assay: competition ELISA, plate-bound soluble cynomolgus TNFR2, biotinylated TNFα as competitor
# Method: (§1) Soluble human TNFR2 (Sino Biological, 10417-H08H) or cynomolgus TNFR2 (Sino Biological, 90102-C08H) was coated on Nunc-Immuno™ plates at 0.1 μg/ml, 0.5 ug/ml, 1 μg/ml, and 5 μg/ml. […] Plates were developed using TMB and stopped with 3 M HCl.
# (§2) IC₅₀ values are reported in nM.
# human TNFR2 on cells = biological target: T2, human TNFR2 on cells; assay: flow cytometry on human PBMC, antibody at 10 ug/mL, anti-human Fc-PE secondary
# Method: The following day 0.3×10⁶ PBMC were counted and washed with PBS (Lonza). PBMCs were resuspended in Fixable Viability Stain 575V (BD) diluted 1:1,000 in PBS and incubated for 10 minutes. PBMCs were then washed twice in PBS to remove residual viability stain. PBMCs were then resuspended in Horizon Brilliant Stain Buffer (BD) with 10 uL per test of human Fc receptor binding inhibitor (eBioscience) and incubated on ice for 20 minutes to block Fc receptors. […] PBMCs were incubated 20 minutes on ice and then washed three times with 2% FBS PBS. To visualize TNFR chimeric antibody binding, PBMCs were resuspended in goat anti-human Fc-PE F(ab′)₂ secondary reagent (Jackson ImmunoResearch) diluted 1:200 in 2% FBS PBS and incubated on ice for 20 minutes. Cells were then washed three times in 2% FBS PBS and resuspended in 200 uL 2% FBS PBS for flow cytometry analysis using a BD FACS Celesta instrument and FACS Diva software. T cells were analyzed for chimeric TNFR2 binding by gating on viable cells defined as lymphocytes using forward and side scatter and as T cells by anti-CD3 staining. CD4⁺ and CD8⁺ subsets were identified by commercially available specific antibody conjugates.
# soluble human TNFR2 = biological target: T3, soluble human TNFR2; assay: competition ELISA, plate-bound soluble human TNFR2, biotinylated TNFα as competitor
# Method: as §1, §2
Binder,Average Relative IC50 (soluble cynomolgus TNFR2),% CD4^+ ab^+ Donor 1 (human TNFR2 on cells) [%],% CD4^+ ab^+ Donor 2 (human TNFR2 on cells) [%],% CD8^+ ab^+ Donor 1 (human TNFR2 on cells) [%],% CD8^+ ab^+ Donor 2 (human TNFR2 on cells) [%],Average Relative IC50 (soluble human TNFR2) [nM]
"chimeric SBT-002 (antibody, V domains shown, also called chSBT-002) VH: QVTLKESGPGILQPSQTLSLTCSFSGFSLSTSGMGVGWIRQPSGKGLEWLAHIWWDDDKFYNPSLKSQLTISKDTSRNQVFLKLTSVVTADTATYYCARLTGTRYFDYWGQGTTLTVSS VL: DVQMTQSPSSLSASLGGKVTITCKASQDINKFIAWYQHKPGKGPRLLIHYTSTLQPGIPSKFSGSGSGRDYSFSISNLEPEDIATYYCLQYGNLWTFGGGTKLEIT",3.38,47.6,38.3,24.3,18.9,2.91
"chimeric SBT-004 (antibody, V domains shown, VH fused to a human IgG1 Fc domain; also called chSBT-004) VH: EVQLQQSGPEVGRPGSSVKISCKASGYTFTDYIMHWVKQSPGQGLEWIGWVDPEYGSTDYAEKFKKKATLTADTSSNTAYIQLSSLTSEDTATYFCARDDGSYSPFDYWGQGVMVTVSS VL: DIQMTQSPPSLSASLGDKVTITCQASQNINKYIAWYQQKPGKAPRLLIRYTSTLESGTPSRFSGSGSGRDYSFSISNVESEDIASYYCLQYVNLLTFGAGTKLEIK",3.64,38.4,26.4,18.8,16.1,5.07
